The target of experiment [1] is mIgE.FcL on transfected Ramos cells (human, UniProt P01854 104-546, limits assumed). The experiment in a line: cell-based or functional assay.
In experiment [2] the target is T1, P3 peptide (human).
T1 peptide: GAGRADWPGPPELDV
The experiment in a line: ELISA on coated peptide (500 ng/well). The method, then:
(§1) To explore the specificity of anti-CεmX mAbs to CεmX, the various CεmX-specific clones were then tested for reactivity with 3 synthetic peptides, representing 3 consecutive segments of CεmX, divided by a C residue located at residue #18 and a CHC segment at residues #39-41. Specifically, P1 peptide contains the last 4 amino acid residues of CH4 of Mε and first 17 amino acid residues (#1-17), namely, […] (SEQ ID NO:2), of CεmX; P2 peptide contains 20 amino acid residues #19-38, namely, […] (SEQ ID NO:3), of CεmX; P3 peptide contains the terminal 11 amino acid residues (#42-52), namely, […]_(SEQ ID NO:4), of CεmX and first 4 amino acid residues of the consecutive migis region, namely, the N-terminal extracellular region of the membrane anchor peptide of Mε chain. All peptides were synthesized at Genomics Research Center, Academia Sinica (Taipei, Taiwan). The peptides were reconstituted with PBS at a concentration of 10 mg/ml. All peptides were coated on 96-well MaxiSorp plates at 500 ng/well in 0.1M NaCO_3 (pH 9.6) at 4° C. overnight. Coated wells were blocked by 200 μl/well of 1% BSA in PBS at room temperature for 1 hour. Plates were washed three times with 200 μl/well of PBS with 0.05% Tween-20, followed by adding 100 μl of 1 μg/ml anti-CεmX mAbs to wells.
Background: In an ELISA, binding on a coated surface is turned into a signal by an enzyme label.

For experiment [3], the target named is T2, mIgE.FcS on transfected Ramos cells (human, UniProt P01854-3 104-494, limits assumed).
T2 construct: domain: CH2 domain through the cytoplasmic end of mεS (CH2-CM), on cells; Lacks the CεmX domain; It forms complexes with the native coreceptors of Ramos cells; also called Ramos cells expressing mIgE.FcS; mεS(CH2-CM)
T2 sequence (P01854 other isoform, or with tags, fused parts or gaps limits assumed): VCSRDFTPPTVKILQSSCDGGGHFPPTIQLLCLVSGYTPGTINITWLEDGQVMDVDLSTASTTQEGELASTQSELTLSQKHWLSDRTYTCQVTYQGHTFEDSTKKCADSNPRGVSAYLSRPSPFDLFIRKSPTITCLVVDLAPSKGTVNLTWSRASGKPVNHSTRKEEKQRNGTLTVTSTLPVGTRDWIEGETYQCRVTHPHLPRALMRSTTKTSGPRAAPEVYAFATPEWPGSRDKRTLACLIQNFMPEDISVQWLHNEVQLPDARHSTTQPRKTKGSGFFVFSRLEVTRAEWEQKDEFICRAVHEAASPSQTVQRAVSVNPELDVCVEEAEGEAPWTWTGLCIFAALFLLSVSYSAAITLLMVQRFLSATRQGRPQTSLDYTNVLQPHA
Kind of experiment: flow cytometry, hybridoma supernatants. In general terms: In flow cytometry, cells or beads pass a laser one at a time.
Excerpt: (§2) We further tested the ability of various CεmX-specific monoclonal antibodies to bind to CHO and Ramos cell lines that were transfected with either recombinant DNA encoding mε_{L(CH2-CM)} or mε_{S(CH2-CM)}. […] The transfected two Ramos cell lines respectively produced mIgE.Fc_L or mIgE.Fc_S, both of which form complexes with their native coreceptors. To investigate the binding of anti-CεmX mAbs to native CεmX, CHO or Ramos cells expressing mIgE.Fc_L or mIgE.Fc_S were resuspended in FACS buffer [PBS, 1% FBS, 0.1% sodium azide, and 2 mM EDTA (pH 8.0)] at a cell density of 10^7 cells/ml. 10^6 cells were then incubated for 30 min on ice with 100 μl of hybridoma supernatants, followed by washing with FACS buffer. Bound antibodies were detected by incubation for 30 minutes on ice with FITC-labeled rabbit F(ab')_2 fragment specific for mouse IgG (AbD Secrotec), followed by washing twice with FACS buffer prior to analysis. Flow cytometry experiments were performed using a FACSCanto II flow cytometer (BD Bioscience) and analyzed using FCSExpress software (De Novo Software).

In experiment [4] the target is T3, mIgE.FcS on transfected CHO cells (human, UniProt P01854-3 104-494, limits assumed).
T3 construct: domain: CH2 domain through the cytoplasmic end of mεS (CH2-CM), on cells; Lacks the CεmX domain; No coreceptors are present in CHO cells; also called CHO cells expressing mIgE.FcS; mεS(CH2-CM)
T3 sequence (P01854 other isoform, or with tags, fused parts or gaps limits assumed): as above
The experiment in a line: flow cytometry, hybridoma supernatants.
Excerpt: as §2

Experiment [5] addresses T4, P1 peptide (human).
T4 construct: Synthetic peptide
T4 peptide: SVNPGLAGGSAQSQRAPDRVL
Kind of experiment: ELISA, 1 µg/ml antibody on coated peptide (500 ng/well). The method, then:
as §1

Sequence of mIgE.FcL on transfected Ramos cells (P01854 104-546 limits assumed): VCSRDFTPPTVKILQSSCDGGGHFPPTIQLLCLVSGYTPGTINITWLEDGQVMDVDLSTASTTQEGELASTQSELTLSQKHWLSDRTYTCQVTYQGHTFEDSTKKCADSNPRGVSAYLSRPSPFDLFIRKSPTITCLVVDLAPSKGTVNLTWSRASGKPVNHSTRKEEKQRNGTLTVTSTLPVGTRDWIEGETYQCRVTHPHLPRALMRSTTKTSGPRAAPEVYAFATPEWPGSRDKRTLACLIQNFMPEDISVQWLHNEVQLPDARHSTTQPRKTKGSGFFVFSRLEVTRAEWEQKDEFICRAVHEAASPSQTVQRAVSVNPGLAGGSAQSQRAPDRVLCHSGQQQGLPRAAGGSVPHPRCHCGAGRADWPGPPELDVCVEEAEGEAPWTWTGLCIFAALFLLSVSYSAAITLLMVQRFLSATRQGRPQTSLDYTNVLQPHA

B1: chimeric 4B12 (antibody, V domains shown)
VH: DVQLQESGPGLVKPSQSLSLTCTVTGYSITSDYAWNWIRQFPGNKLEWMGSISYSGITGYNPSLKSRISVTRDTSKNQFFLQLNSVTTEDTATYYCARMGYDGLAYWGHGTTVTVSA
VL: DVLMTQTPLSLPVSLGDQASISCRSSQSIVHSNGNTYLEWYLQKPGQSPKLLIYKVSNRFSGVPDRFSGSGSGTDFTFKISRVEAEDLGVYYCFQGSHVPPTFGGGTKLEIKR
Take B1: in experiment [1], the “ADCC, specific lysis at an E/T ratio of 50 (antibody 1 µg/ml, PBMC effectors)” value is not above 60%.

B2: mouse monoclonal antibody 4B12 (antibody, V domains shown)
VH: B1 VH
VL: B1 VL
notes: Mouse hybridoma IgG, detected with anti-mouse IgG; also called parental mouse 4B12
Regarding B2, the binding result in experiment [2] is listed as “no binding (tested: 1 µg/ml)”; in experiment [3], “no binding”; in experiment [4], “no binding”; in experiment [5] it was “binds”.

The values are drawn from US8460664 (ACADEMIA SINICA, dated 2013).
